From US20150290319A1 (EMERGENT BIOSOLUTIONS CANADA, published 2015) come the findings set out here.

Substitutions are numbered along the chain they refer to.

The target in test [1] is T1, recombinant toxin B fragment 1 (Clostridium difficile, UniProt P18177 1-546). As to the kind of experiment: ELISA, coated antigen, antibody at 0.5 ug/ml, OD405 at 15 min.
The target in test [2] is T2, Clostridium difficile toxin B (whole toxin B) (Clostridium difficile).
T2 construct: also called TcdB; tcdB
In words: biolayer interferometry (Octet QKe); biotinylated antibody on streptavidin sensor, toxin B 50-0.78 nM. A general note: Biolayer interferometry detects binding as a change in optical thickness at a sensor tip.

The target in test [3] is T2, Clostridium difficile toxin B (whole …). As to the kind of experiment: cell-based or functional assay.
For test [4] the target is unchanged. In words: BLI (Octet QKe), mAb on SA sensor, toxin B analyte, model 1:1.
Test [5] shares this target. As to the kind of experiment: BLI (Octet QKe), mAb on SA sensor, toxin B analyte, model 1:1; head prints KD (nM) but Kdis/Kon gives this number in M.
Test [6] shares this target. In words: BLI (Octet QKe), mAb on AHC sensor, toxin B analyte, model 2:1; head prints KD (nM) but Kdis/Kon gives this number in M.
The target is the same in test [7]. As to the kind of experiment: BLI (Octet QKe), mAb from CHOK1SV, toxin B; column kdis2 (1/s).
Another test has as its target T3, bovine serum albumin (bovine, UniProt P02769 25-607).
T3 construct: also called BSA; commercial BSA
In words: Western blot (FIGS. 4-6). A general note: Immunoblotting shows a protein as a band on a membrane.

Test [8] addresses T2, Clostridium difficile toxin B (whole …). In words: cell-based or functional assay. This is another data set of the same source.
The target of test [9] is T4, Clostridium difficile toxin A (whole toxin A) (Clostridium difficile, UniProt P16154 1-2710).
T4 construct: mature; also called TcdA
In words: ELISA on coated whole toxin A (FIG. 1). In general terms: In an ELISA, binding on a coated surface is turned into a signal by an enzyme label.

In test [10] the target is T5, recombinant toxin B fragment 4 (Clostridium difficile, UniProt P18177 1777-2366). In words: ELISA, coated antigen, mAb 0.1-1 µg/ml (FIG. 1).
For test [11], the target named is T1, recombinant toxin B fragment 1. In words: Western blot, 5 ug protein per lane, mAb at 5 ug/ml.
Test [12] shares this target. In words: Western blot, 2 ug protein per lane, mAb at 2 ug/ml.
Test [13] has as its target T5, recombinant toxin B fragment 4. In words: ELISA, coated antigen, antibody at 0.5 ug/ml, OD405 at 15 min.
Test [14] concerns the target T1, recombinant toxin B fragment 1. In words: Western blot, 2 ug protein per lane, mAb at 2 ug/ml. The source holds these as a separate data set.
Test [15] has as its target T2, Clostridium difficile toxin B (whole …). As to the kind of experiment: BLI (Octet QKe), mAb on SA sensor, toxin B analyte, model 2:1.
Test [16] shares this target. As to the kind of experiment: BLI (Octet QKe), mAb on AHC sensor, toxin B analyte, model 2:1.
The target in test [17] is T5, recombinant toxin B fragment 4. As to the kind of experiment: Western blot, 2 ug protein per lane, mAb at 2 ug/ml.
In test [18] the target is T2, Clostridium difficile toxin B (whole …). In words: BLI (Octet QKe), mAb on SA sensor, toxin B analyte, model 2:1, first of three rows.
Test [19] shares this target. As to the kind of experiment: BLI (Octet QKe), mAb on SA sensor, toxin B analyte, model 2:1, third of three rows.

T1 sequence (P18177 1-546 limits assumed): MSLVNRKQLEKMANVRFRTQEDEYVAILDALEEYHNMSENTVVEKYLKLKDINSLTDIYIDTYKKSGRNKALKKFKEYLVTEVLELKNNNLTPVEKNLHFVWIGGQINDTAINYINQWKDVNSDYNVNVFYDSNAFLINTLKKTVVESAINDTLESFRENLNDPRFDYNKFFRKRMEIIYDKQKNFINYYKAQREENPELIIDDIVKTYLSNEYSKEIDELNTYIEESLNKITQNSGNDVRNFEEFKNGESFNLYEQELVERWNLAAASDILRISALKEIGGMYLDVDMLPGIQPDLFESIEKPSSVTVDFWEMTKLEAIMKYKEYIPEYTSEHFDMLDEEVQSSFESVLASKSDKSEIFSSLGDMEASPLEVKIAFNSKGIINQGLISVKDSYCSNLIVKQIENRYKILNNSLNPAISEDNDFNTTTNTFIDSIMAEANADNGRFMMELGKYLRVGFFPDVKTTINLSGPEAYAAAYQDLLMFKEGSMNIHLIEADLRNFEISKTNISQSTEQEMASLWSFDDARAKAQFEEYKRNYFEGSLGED
T3 sequence (P02769 25-607 limits assumed): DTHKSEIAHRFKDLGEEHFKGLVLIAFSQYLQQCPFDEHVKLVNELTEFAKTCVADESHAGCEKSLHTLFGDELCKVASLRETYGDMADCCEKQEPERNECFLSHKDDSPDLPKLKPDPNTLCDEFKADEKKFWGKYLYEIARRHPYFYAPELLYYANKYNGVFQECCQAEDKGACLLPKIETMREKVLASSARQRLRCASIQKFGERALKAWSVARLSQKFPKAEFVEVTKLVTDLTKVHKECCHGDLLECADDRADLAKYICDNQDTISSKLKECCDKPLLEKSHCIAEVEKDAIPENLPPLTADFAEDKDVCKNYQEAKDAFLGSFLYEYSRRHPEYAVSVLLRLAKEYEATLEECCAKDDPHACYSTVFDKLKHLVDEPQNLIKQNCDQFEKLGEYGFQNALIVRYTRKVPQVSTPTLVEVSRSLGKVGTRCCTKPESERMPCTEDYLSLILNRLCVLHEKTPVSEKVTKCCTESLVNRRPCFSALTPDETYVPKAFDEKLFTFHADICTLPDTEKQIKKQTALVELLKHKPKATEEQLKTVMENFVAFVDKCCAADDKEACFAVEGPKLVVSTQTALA
T5 sequence (P18177 1777-2366 limits assumed): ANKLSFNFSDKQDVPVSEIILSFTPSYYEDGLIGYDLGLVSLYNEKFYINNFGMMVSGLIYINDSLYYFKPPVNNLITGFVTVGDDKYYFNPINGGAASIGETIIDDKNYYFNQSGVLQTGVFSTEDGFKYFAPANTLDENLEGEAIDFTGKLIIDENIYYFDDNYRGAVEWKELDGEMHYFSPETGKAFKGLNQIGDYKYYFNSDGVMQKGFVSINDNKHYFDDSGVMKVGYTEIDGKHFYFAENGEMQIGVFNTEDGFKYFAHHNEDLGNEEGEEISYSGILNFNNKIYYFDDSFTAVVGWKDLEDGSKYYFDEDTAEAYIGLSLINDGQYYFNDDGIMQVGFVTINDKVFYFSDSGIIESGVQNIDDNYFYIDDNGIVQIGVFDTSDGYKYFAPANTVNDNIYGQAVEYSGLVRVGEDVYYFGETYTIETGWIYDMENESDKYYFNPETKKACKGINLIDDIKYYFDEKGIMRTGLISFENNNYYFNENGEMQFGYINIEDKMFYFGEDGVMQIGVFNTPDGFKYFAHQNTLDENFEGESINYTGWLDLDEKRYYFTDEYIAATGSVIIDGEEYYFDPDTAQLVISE
T4 sequence (P16154 whole entry): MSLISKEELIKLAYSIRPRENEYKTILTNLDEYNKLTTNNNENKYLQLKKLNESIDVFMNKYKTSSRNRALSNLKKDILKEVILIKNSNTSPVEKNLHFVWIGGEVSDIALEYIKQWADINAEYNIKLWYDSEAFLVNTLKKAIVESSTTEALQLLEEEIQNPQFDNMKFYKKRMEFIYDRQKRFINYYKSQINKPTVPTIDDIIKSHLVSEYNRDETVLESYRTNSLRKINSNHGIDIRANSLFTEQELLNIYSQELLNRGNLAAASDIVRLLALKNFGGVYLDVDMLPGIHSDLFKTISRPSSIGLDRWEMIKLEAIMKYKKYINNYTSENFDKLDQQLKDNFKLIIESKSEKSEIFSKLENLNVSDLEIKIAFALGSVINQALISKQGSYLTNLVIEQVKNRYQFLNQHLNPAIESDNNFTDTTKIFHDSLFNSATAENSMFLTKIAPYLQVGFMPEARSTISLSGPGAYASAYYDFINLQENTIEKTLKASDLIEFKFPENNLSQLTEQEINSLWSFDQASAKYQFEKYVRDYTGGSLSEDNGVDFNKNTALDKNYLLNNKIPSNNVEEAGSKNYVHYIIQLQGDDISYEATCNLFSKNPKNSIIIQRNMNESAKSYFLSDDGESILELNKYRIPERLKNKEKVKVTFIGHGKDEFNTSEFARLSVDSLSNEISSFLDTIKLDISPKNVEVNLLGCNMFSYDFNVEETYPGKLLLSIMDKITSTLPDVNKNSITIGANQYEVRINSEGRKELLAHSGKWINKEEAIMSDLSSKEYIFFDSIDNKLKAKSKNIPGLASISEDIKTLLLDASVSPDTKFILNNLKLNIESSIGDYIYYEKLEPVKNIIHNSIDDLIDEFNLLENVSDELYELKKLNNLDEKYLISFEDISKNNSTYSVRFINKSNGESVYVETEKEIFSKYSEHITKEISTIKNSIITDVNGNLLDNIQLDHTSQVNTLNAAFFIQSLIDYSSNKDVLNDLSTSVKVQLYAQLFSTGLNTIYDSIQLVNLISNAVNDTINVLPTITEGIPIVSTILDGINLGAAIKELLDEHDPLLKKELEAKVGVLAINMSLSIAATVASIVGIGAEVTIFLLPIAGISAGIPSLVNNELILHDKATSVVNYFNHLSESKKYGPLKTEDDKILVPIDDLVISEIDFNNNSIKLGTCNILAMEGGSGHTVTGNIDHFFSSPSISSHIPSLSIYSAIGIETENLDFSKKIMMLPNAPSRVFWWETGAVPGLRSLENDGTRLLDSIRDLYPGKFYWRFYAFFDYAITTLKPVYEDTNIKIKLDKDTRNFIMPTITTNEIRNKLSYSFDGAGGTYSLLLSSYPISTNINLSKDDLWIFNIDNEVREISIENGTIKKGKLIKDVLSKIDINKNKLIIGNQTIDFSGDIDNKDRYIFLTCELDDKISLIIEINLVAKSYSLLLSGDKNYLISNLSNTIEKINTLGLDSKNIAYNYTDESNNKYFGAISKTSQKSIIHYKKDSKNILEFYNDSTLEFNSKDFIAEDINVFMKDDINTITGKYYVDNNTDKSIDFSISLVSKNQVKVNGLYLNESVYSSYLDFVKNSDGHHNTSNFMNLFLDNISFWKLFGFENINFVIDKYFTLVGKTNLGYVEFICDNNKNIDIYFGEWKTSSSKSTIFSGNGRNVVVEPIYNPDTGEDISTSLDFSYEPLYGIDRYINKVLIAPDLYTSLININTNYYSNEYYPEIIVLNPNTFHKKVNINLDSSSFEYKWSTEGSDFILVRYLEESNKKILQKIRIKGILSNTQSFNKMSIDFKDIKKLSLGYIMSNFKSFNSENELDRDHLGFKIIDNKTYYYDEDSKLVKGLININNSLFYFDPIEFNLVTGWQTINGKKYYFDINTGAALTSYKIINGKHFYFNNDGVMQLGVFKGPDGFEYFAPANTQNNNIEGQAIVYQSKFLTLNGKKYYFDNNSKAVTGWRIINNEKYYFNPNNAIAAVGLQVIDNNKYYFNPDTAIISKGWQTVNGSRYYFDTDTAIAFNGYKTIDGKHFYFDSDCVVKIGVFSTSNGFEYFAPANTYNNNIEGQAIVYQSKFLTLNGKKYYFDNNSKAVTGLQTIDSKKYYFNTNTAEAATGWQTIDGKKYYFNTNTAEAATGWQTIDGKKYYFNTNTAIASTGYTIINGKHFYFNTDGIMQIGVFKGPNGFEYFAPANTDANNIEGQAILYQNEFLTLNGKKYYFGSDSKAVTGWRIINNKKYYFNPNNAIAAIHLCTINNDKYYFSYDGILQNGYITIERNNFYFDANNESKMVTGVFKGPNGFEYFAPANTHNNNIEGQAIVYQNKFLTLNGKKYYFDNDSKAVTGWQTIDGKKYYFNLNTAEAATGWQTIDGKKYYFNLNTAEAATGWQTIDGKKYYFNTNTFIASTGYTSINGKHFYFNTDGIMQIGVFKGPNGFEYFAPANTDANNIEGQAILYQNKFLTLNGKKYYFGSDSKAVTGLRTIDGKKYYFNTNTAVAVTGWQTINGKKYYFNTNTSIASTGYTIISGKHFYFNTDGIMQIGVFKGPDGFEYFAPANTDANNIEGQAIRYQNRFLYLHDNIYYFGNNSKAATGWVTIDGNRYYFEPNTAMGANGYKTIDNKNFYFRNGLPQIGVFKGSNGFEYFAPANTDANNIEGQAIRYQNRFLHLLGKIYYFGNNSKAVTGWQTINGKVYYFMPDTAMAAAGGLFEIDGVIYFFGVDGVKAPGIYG

B1: CAN33G1 (antibody, V domains shown)
VH: EVQLQQSGPDLVKPGASVKISCKASGYSFTGYYMHWVKQSHGKSLEWIGRVNPYNGDTNYNQNFKDKAILTVDKSASTAYMEFRSLTSEDSAVYYCTRSNWENYFDYWGQGSTLTVSS
VL: DIQLTQSSSSFSVSLGDRVTITCKASEDIYNRLAWYQQRPGNAPRLLISGATSLETGIPSRFSGSGSGKEYTLSIASLQTEDFVTYYCQQYWNIPTFGGGTRLEIK
notes: also called murine CAN33G1; CAN33 mAb
For B1, in test [1], the binding result is “no binding (tested: 0.5 ug/ml)”. In [2], binding was characterised by a dissociation constant (Kd) of 10.9 nM; the koff (as a rule, the rate constant with which the complex falls apart) is 0.000591 s⁻¹; the kon – broadly, a measure of how fast the partners come together – amounted to 54400 M⁻¹ s⁻¹.

B2: rehuCAN46G19 (antibody, V domains shown)
VH: EVQLVQSGAEVVKPGESVKISCKASGYSFTGYYIHWVKQTPGQSLEWVGRIFPYNGAASYNQNFKGKATLTVDKSTTTAYMELSSLRSEDSAVYFCARWLRVYFDYWGQGTTLTVSS
VL: ENVLTQSPSSMSASVGDRVTMTCSASSSVTYMHWYQQKPGKSPKLWIYETSKLASGVPSRFSGSGSGNDYSLTISSMQPEDVATYYCFQGSGYPFTFGQGTKLEIK
Take B2: the “antibody concentration giving 100% neutralization of toxin B on CT-26 cells, mAb from CHO (FIG. 25)” value in test [3] was ~0.3 µg/mL. In [4], the off-rate (koff) was determined as 0.00021 s⁻¹ and the kon came to 1.36e+06 M⁻¹ s⁻¹. Binding in test [5] was put at a Kd of 0.154 nM.

B3: huCAN46G19 (antibody, V domains shown)
VH: B2 VH with V12K, I20V, T40A, S44G, T76S, S91T, L113V
VL: B2 VL with M11L, M21I, S42A, S59G, D69S, S71T, L72F, M77L, V82I, L103V
notes: also called HuCAN46G19-3-2
For B3, in test [6], the Kd (as a rule, the free concentration of one partner at which half of the binding sites on the other are occupied at equilibrium, for simple one-to-one binding) was 0.178 nM.

B4: rehuCAN46G24 (antibody, V domains shown)
VH: B2 VH with T77S
VL: B2 VL with N2I, A13T, T22S
For the molecule B4, the “antibody concentration giving 100% neutralization of toxin B on CT-26 cells, mAb from CHO (FIG. 25)” value in [3] was ~0.3 µg/mL. In addition, the koff in [7] was found to be 1.2e-05 s⁻¹.

B5: CAN46G24 (antibody, V domains shown)
VH: EVQLLQSGPELVKPGTSVKISCKASGYSFTGYYIHWVKQTHVKSLEWVGRIFPYNGAASYNQNFKGKATLTVDKSSSTAYMELHSLTSEDSAVYFCARWLRVYFDYWGQGTTLTVSS
VL: EIVLTQSPAIMSTSPGEKVTMSCSASSSVTYMHWYQQKSITSPKLWIYETSKLASGVPGRFSGSGSGNSYSLTISSMEAEDVATYYCFQGSGYPFTFGSGTKLEIK
notes: also called CAN46G24-2-3; murine CAN46G24
As to B5, the binding result is on record as “no binding (tested: 2 µg/ml to 5 µg/ml)” in the test with bovine serum albumin, “no binding (tested: 0.1 µg/ml to 1 µg/ml)” in test [9], “binds” in [10] and “no binding (tested: 5 ug/ml)” in test [11]. The “Mean EC50, neutralization of TcdB on HT-29 cells (xCELLigence)” value (from here on “Mean EC50, neutralization of TcdB”) in test [8] came out at 44.2 µg/mL. Also, binding in test [2] was put at a Kd of 1.89 nM. Moreover, in [2], the koff is 0.00028 s⁻¹. Also, the kon in test [2] was found to be 149000 M⁻¹ s⁻¹.

B6: CAN46G13 (antibody, V domains shown)
VH: B5 VH
VL: B5 VL
notes: also called CAN46G13-1-5; murine CAN46G13
As to B6, the binding result in the test with bovine serum albumin is given as “no binding (tested: 2 µg/ml to 5 µg/ml)”; in [9] it was “no binding (tested: 0.1 µg/ml to 1 µg/ml)”; in test [12], “no binding (tested: 2 ug/ml)”; in [13], “binds”. Moreover, in test [8], the “Mean EC50, neutralization of TcdB” value came to 136 µg/mL. In test [2], binding was put at a Kd of 1.17 nM. This molecule also showed a koff in test [2] of 0.000149 s⁻¹. In [2], the kon is 128000 M⁻¹ s⁻¹.

B7: CAN46G4 (antibody, V domains shown)
VH: B5 VH with T16A, G26D, I34M, T40S, V48I, G66D, F95Y, A97T
VL: B5 VL with I2K, T13A, K18E, S22T, T30S, I40S, S55F, I105V
notes: also called CAN46G4-1-2; murine CAN46G4
With B7, the binding result was “no binding (tested: 2 µg/ml to 5 µg/ml)” with bovine serum albumin, “no binding (tested: 0.1 µg/ml to 1 µg/ml)” in test [9], “binds” in test [10] and “no binding (tested: 2 ug/ml)” in test [14]. In addition, the “Mean EC50, neutralization of TcdB” value in test [8] is 142 µg/mL. The Kd in test [2] amounted to 1.41 nM. In test [2], the koff stood at 0.000101 s⁻¹. Further, in test [2], the kon was 71800 M⁻¹ s⁻¹.

B8: CAN46G19 (antibody, V domains shown)
VH: B5 VH with S77T
VL: B5 VL with I2N, A9T, T13A, K18E, S22T
notes: also called CAN46G19-3-2; murine CAN46G19
On to B8, for which the binding result is “no binding (tested: 2 µg/ml to 5 µg/ml)” with bovine serum albumin, “no binding (tested: 0.1 µg/ml to 1 µg/ml)” in [9], “binds” in test [10] and “no binding (tested: 2 ug/ml)” in test [14]. In [8], the “Mean EC50, neutralization of TcdB” value came out at 142 µg/mL. Moreover, the Kd in [2] was 1.27 nM. In [2], this molecule returned a koff of 0.000145 s⁻¹. In test [2], the kon was 114000 M⁻¹ s⁻¹.

B9: huCAN46G4 (antibody, V domains shown)
VH: EVQLLQSGAEVKKPGSSVKISCKASDYSFTGYYMHWVKQAPGQGLEWIGRIFPYNGAASYNQNFKDKATLTVDKSSSTAYMELHSLRSEDTAVYYCTRWLRVYFDYWGQGTLVTVSS
VL: EKVLTQSPATLSLSPGERATMTCSASSSVSYMHWYQQKPGTSPKLWIYETSKLAFGVPARFSGSGSGNSYSLTISSLEPEDFAVYYCFQGSGYPFTFGQGTRLEIK
Regarding B9, the values for the koff in [15] and in test [16] were 0.000928 s⁻¹ and 0.000754 s⁻¹, respectively. The kon is 590000 M⁻¹ s⁻¹ in test [15] and 2.12e+06 M⁻¹ s⁻¹ in test [16].

B10: rehuCAN46G4 (antibody, V domains shown)
VH: B9 VH with K12V, D26G, V72A, S76T, S77N, H84S, T91S
VL: B9 VL with L13A, A19V, T22S, T41Q, N68T, S69D, L77M, V84T
In test [4], B10 returned a koff of 0.000235 s⁻¹ and a kon of 590000 M⁻¹ s⁻¹. In [5], binding was put at a Kd of 0.399 nM.

B11: CAN46G13a (antibody, V domains shown)
VH: DVQLQESGPGLVKPSQSLSLTCTVTGYSITSDSAWNWIRQFPGNNLEWMGYISYSGSTSYNPSLKSRISITRDTSKNQFFLQLNSVTTEDTATYYCARRSRVSFYFDYWGQGTTLTVSS
VL: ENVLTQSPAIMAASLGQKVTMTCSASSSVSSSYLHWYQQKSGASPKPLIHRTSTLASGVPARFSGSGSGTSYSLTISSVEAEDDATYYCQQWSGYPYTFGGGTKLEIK
notes: also called CAN46G13-1-8; murine CAN46G13a
For the molecule B11, the binding result with bovine serum albumin is “no binding (tested: 2 µg/ml to 5 µg/ml)”; in [9], “no binding (tested: 0.1 µg/ml to 1 µg/ml)”; in test [17] it was “no binding (tested: 2 ug/ml)”. The values for the koff in test [18], in test [19] and in test [2] were 0.00357 s⁻¹, 0.00598 s⁻¹ and 0.00693 s⁻¹, respectively. Further, the values for the kon in [18], in test [19] and in test [2] were 678000 M⁻¹ s⁻¹, 73700 M⁻¹ s⁻¹ and 808000 M⁻¹ s⁻¹, respectively. This molecule also registered a Kd in test [2] of 8.57 nM.
